Results taken from publication PMC4060006, “SM proteins Sly1 and Vps33 co-assemble with Sec17 and SNARE complexes to oppose SNARE disassembly by Sec18” (eLife, 2014).

T1: Vps33 (S. cerevisiae, UniProt P20795 1-691)
T1 construct: Vps33, SM protein of the vacuole, S. cerevisiae; also called vacuole SM protein; late endolysosomal SM; source: insect cells, Baculovirus system, purified
T1 sequence (looked up): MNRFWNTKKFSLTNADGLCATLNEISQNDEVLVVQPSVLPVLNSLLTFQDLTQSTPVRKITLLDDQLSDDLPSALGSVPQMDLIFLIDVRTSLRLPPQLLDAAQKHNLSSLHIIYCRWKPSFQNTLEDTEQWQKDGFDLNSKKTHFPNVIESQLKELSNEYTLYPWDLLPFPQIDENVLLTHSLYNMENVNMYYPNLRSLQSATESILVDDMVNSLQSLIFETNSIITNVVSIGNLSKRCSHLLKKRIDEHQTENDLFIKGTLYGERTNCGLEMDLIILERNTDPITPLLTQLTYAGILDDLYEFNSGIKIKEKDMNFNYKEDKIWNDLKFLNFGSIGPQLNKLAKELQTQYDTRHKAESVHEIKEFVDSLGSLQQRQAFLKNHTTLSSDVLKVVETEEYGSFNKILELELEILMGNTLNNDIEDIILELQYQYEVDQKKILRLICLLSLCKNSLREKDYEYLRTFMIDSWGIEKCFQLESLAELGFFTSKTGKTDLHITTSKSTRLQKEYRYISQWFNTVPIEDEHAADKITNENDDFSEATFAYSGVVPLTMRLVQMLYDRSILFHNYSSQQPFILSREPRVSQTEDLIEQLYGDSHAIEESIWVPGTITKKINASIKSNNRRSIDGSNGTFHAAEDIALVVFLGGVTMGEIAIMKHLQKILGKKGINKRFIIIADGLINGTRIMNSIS

T2: GST-Sed5 full cytoplasmic domain (aa1-319) (S. cerevisiae, UniProt Q01590 1-319)
T2 construct: Sed5, Golgi Qa-SNARE, S. cerevisiae, full cytoplasmic domain aa1-319 with N-peptide and Habc segments, no transmembrane domain; also called GST-Sed5FL; Sed5FL; not shown: GST, N-terminal, kept
T2 sequence (looked up): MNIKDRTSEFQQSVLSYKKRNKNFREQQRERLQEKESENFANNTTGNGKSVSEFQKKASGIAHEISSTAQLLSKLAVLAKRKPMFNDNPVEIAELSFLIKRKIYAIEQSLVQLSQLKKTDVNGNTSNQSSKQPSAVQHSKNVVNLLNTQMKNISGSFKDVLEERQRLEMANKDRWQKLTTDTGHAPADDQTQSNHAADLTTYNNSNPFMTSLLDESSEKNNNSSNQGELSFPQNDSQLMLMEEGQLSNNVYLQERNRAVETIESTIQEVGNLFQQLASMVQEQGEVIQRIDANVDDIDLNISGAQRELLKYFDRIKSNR

T3: Sly1 (full length, aa1-667) (S. cerevisiae, UniProt P22213 1-666)
T3 construct: Sly1, Golgi SM protein, S. cerevisiae, printed as full-length aa1-667; construct His6-(tev)-Sly1; as I recall the UniProt entry has 666 residues; the printed 667 may count the stop codon; also called His6-Sly1; Golgi SM protein; source: E. coli (pRIL plasmid), purified (Ni-NTA)
T3 sequence (looked up): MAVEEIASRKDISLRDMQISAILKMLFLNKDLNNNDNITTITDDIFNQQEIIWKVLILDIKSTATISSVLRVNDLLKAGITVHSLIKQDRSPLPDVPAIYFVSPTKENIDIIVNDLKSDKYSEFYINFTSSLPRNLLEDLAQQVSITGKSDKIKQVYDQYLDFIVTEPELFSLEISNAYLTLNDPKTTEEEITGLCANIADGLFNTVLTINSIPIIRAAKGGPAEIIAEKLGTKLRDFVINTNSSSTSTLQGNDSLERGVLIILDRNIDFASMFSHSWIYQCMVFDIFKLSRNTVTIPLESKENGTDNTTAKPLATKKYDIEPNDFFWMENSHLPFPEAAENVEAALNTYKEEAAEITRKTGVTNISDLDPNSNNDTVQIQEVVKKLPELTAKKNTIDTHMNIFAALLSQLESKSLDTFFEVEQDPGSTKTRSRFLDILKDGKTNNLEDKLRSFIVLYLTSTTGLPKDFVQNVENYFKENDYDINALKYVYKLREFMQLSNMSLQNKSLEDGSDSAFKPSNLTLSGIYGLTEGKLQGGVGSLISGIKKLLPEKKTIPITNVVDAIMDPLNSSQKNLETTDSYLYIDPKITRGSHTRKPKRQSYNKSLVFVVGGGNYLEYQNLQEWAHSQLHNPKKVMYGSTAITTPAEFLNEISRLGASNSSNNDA

B1: Vam3-GST (cytoplasmic domain of Vam3, aa1-264) (domain or fragment, S. cerevisiae, UniProt Q12241 1-264, looked up)
chain: MSFFDIEAQSSKGNSQQEPQFSTNQKTKELSNLIETFAEQSRVLEKECTKIGSKRDSKELRYKIETELIPNCTSVRDKIESNILIHQNGKLSADFKNLKTKYQSLQQSYNQRKSLFPLKTPISPGTSKERKDIHPRTEAVRQDPESSYISIKVNEQSPLLHNEGQHQLQLQEEQEQQQQGLSQEELDFQTIIHQERSQQIGRIHTAVQEVNAIFHQLGSLVKEQGEQVTTIDENISHLHDNMQNANKQLTRADQHQRDRNKCGK
notes: Vam3, vacuole Qa-SNARE, S. cerevisiae, cytoplasmic domain aa1-264, no transmembrane domain; TEV site between SNARE and GST; also called Vam3 cytoplasmic domain; vacuole Qa-SNARE; not shown: GST, C-terminal, kept
B2: His6-Nyv1 (soluble domain, aa1-231) (domain or fragment, S. cerevisiae, UniProt Q12255 1-231, looked up)
chain: MKRFNVSYVEVIKNGETISSCFQPFQKNENYGTITSANEQITPVIFHNLIMDMVLPKVVPIKGNKVTKMSMNLIDGFDCFYSTDDHDPKTVYVCFTLVDMPKILPIRILSGLQEYESNATNELLSSHVGQILDSFHEELVEYRNQTLNSSGNGQSSNGNGQNTISDIGDATEDQIKDVIQIMNDNIDKFLERQERVSLLVDKTSQLNSSSNKFRRKAVNIKEIMWWQKVKN
notes: Nyv1, vacuole R-SNARE, S. cerevisiae, soluble domain aa1-231; also called vacuole R-SNARE; source: E. coli (pRIL plasmid), purified (Ni-NTA); not shown: His6, N-terminal, kept
B3: His6-Bos1 (soluble domain, aa1-222) (domain or fragment, S. cerevisiae, UniProt P25385 1-222, looked up)
chain: MNALYNHAVKQKNQLQQELARFEKNSVTAPISLQGSISATLVSLEKTVKQYAEHLNRYKEDTNAEEIDPKFANRLATLTQDLHDFTAKFKDLKQSYNENNSRTQLFGSGASHVMDSDNPFSTSETIMNKRNVGGASANGKEGSSNGGGLPLYQGLQKEQSVFERGNAQLDYILEMGQQSFENIVEQNKILSKVQDRMSNGLRTLGVSEQTITSINKRVFKDK
notes: Bos1, Golgi Qb-SNARE, S. cerevisiae, soluble domain aa1-222; also called Golgi Qb-SNARE; source: E. coli Rosetta2 pLys, purified (Ni-NTA); not shown: His6, N-terminal, kept
B4: His7-MBP-Vti1 (soluble domain, aa1-194) (domain or fragment, S. cerevisiae, UniProt Q04338 1-194, looked up)
chain: MSSLLISYESDFKTTLEQAKASLAEAPSQPLSQRNTTLKHVEQQQDELFDLLDQMDVEVNNSIGDASERATYKAKLREWKKTIQSDIKRPLQSLVDSGDRDRLFGDLNASNIDDDQRQQLLSNHAILQKSGDRLKDASRIANETEGIGSQIMMDLRSQRETLENARQTLFQADSYVDKSIKTLKTMTRRLVANK
notes: Vti1, vacuole Qb-SNARE, S. cerevisiae, soluble domain aa1-194; also called vacuole Qb-SNARE; source: E. coli (pRIL plasmid), purified (Ni-NTA); not shown: His7, N-terminal, kept; MBP, N-terminal, kept
B5: His7-MBP-Bet1 (soluble domain, aa1-123) (domain or fragment, S. cerevisiae, UniProt P22804 1-123, looked up)
chain: MSSRFAGGNAYQRDTGRTQLFGPADGSNSLDDNVSSALGSTDKLDYSQSTLASLESQSEEQMGAMGQRIKALKSLSLKMGDEIRGSNQTIDQLGDTFHNTSVKLKRTFGNMMEMARRSGISIK
notes: Bet1, Golgi Qc-SNARE, S. cerevisiae, soluble domain aa1-123; also called Golgi Qc-SNARE; source: E. coli (pRIL plasmid), purified (Ni-NTA); not shown: His7, N-terminal, kept; MBP, N-terminal, kept
B6: His6-GFP-Vam7 SNARE domain (aa190-316) (domain or fragment, S. cerevisiae, UniProt P32912 190-316, looked up)
chain: PSTEVTRRAALLRSLLKECDDIGTANIAQDRGRLLGVATSDNSSTTEVQGRTNNDLQQGQMQMVRDQEQELVALHRIIQAQRGLALEMNEELQTQNELLTALEDDVDNTGRRLQIANKKARHFNNSA
notes: Vam7, vacuole Qc-SNARE, S. cerevisiae, SNARE domain aa190-316; also called vacuole Qc-SNARE; source: E. coli (pRIL plasmid), purified (Ni-NTA); not shown: His6, N-terminal, kept; GFP (A207K), N-terminal, kept
B7: GST-Sed5 SNARE domain (aa170-319) (domain or fragment, S. cerevisiae, UniProt Q01590 170-319, looked up)
chain: ANKDRWQKLTTDTGHAPADDQTQSNHAADLTTYNNSNPFMTSLLDESSEKNNNSSNQGELSFPQNDSQLMLMEEGQLSNNVYLQERNRAVETIESTIQEVGNLFQQLASMVQEQGEVIQRIDANVDDIDLNISGAQRELLKYFDRIKSNR
notes: Sed5, Golgi Qa-SNARE, S. cerevisiae, aa170-319, lacks the N-peptide, the Habc domain and the transmembrane domain; also called Golgi Qa-SNARE lacking N-peptide and Habc domain; not shown: GST, N-terminal, kept
B8: His6-Sec22 (soluble domain, aa1-188) (domain or fragment, S. cerevisiae, UniProt P22214 1-188, looked up)
chain: MIKSTLIYREDGLPLCTSVDNENDPSLFEQKQKVKIVVSRLTPQSATEATLESGSFEIHYLKKSMVYYFVICESGYPRNLAFSYLNDIAQEFEHSFANEYPKPTVRPYQFVNFDNFLQMTKKSYSDKKVQDNLDQLNQELVGVKQIMSKNIEDLLYRGDSLDKMSDMSSSLKETSKRYRKSAQKINFD
notes: Sec22, Golgi R-SNARE, S. cerevisiae, soluble domain aa1-188; also called Golgi R-SNARE; source: E. coli (pRIL plasmid), purified (Ni-NTA); not shown: His6, N-terminal, kept

How the values were obtained:
Conditions in all cases: both partners purified
Vps33 = target: T1, Vps33; assay: pull-down; SNARE complexes (500 nM) on immobilised Qa-SNARE pre-incubated with Sec17 (20 µM) and Sly1 (10 µM) or Vps33 (2.5 µM) 60 min at 30°C in Disassembly Buffer (SM Assay Buffer, 1 mM ATP, 2 mM MgCl2), then Sec18 (300 nM); what stayed on the resin after complete disassembly, SDS-PAGE
[1] = target: B1; assay: pull-down; re-assembly with added SNAREs: as a9, but soluble Qb, Qc and R-SNAREs (~3 µM each) added along with the EDTA quench, 30 min at 30°C
[2] = target: T2, GST-Sed5 full cytoplasmic domain …; assay: pull-down; SNARE complex assembly: 125 pmol GST-tagged Qa-SNARE on glutathione sepharose 4B; >=fivefold molar excess of Qb-, Qc- and R-SNAREs overnight at 4°C; SM Assay Buffer (20 mM HEPES, 150 mM NaCl, 2 mM 2-mercaptoethanol, 0.05% Anapoe-X-100, pH 7.4); washed
[3] = target: B1; assay: as above
[4] = target: B7; assay: pull-down; re-assembly with added SNAREs: as a9, but soluble Qb, Qc and R-SNAREs (~3 µM each) added along with the EDTA quench, 30 min at 30°C
[5] = target: B8; assay: as above
[6] = target: T3, Sly1 (full length, aa1-667); assay: pull-down; SNARE complexes (500 nM) on immobilised Qa-SNARE pre-incubated with Sec17 (20 µM) and Sly1 (10 µM) or Vps33 (2.5 µM) 60 min at 30°C in Disassembly Buffer (SM Assay Buffer, 1 mM ATP, 2 mM MgCl2), then Sec18 (300 nM); what stayed on the resin after complete disassembly, SDS-PAGE

B1: binds (Vps33).

B2: binds [1].

B3: binds [2].

B4: binds [3].

B5: binds [4]; binds [2].

B6: binds [1].

B7: binds [5]; binds [6].

B8: binds [2].
